Values belong to the binder of their own block, whether it stands above or below them.
Experiments:
[1] = molecular target: T1, biotinylated recombinant human FcRn-His tagged protein (Acro #FCM-H82W7) (human, UniProt P55899 24-297; P61769 21-119, biotinylated); test: BLI/Octet; biotinylated human FcRn-His on streptavidin biosensor
T1 construct: also called hFcRn; neonatal Fc receptor
Description: (§1) Figure 5D: FIG. 5D. FcRn binding kinetics by anti-TNFRSF25 antibodies. BLI assay was performed using the Octet Red 96e instrument. Streptavidin biosensors were loaded with biotinylated recombinant human(h) FcRn-His tagged protein (Acro #FCM-H82W7) as the ligand. During the association phase, biosensors were incubated with anti-DR3 candidate antibodies at various concentrations for 600 seconds, followed by a 600-second dissociation phase.
(§2) To detect binding of certain whole antibodies to the neonatal Fc receptor (FcRn) at neutral and acidic pH conditions, streptavidin biosensors were loaded with biotinylated recombinant human FcRn-His tagged protein (Acro #FCM-H82W7) as the ligand. During the association phase, biosensors were incubated with anti-TNFRSF25 antibodies at various concentrations for 600 seconds, followed by a 600 second dissociation phase.

[2] = molecular target: T1, biotinylated recombinant human FcRn-His …; test: BLI/Octet; biotinylated human FcRn-His on streptavidin biosensor; pH 6.0
Description: as §1, §2

[3] = molecular target: T1, biotinylated recombinant human FcRn-His …; test: BLI/Octet; biotinylated human FcRn-His on streptavidin biosensor; pH 7.4
Description: as §1, §2

[4] = molecular target: T2, biotinylated recombinant human TNFRSF25-His tagged (Acro #TN5-H52H3) (human, UniProt Q93038 25-199, biotinylated); test: MSD competition (lower panel); antibody on TNFRSF25-coated plate, wash, then TL1A-rabbit Fc at 0.4 ug/ml, sulfo-tag anti-rabbit detection; raw MSD signal
T2 construct: treated as the same protein; also called recombinant biotin-conjugated human TNFRSF25 protein; DR3
T2 sequence (looked up): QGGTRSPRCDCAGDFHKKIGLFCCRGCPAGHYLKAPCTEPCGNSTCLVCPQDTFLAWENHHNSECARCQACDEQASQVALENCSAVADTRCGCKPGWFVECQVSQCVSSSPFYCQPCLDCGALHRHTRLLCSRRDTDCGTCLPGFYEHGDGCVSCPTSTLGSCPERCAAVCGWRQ
Description: (§3) Figure 6: FIG. 6. […] Human TNFRSF25 was precoated on MSD assay plates followed by incubating with various concentrations of anti-TNFRSF25 antibodies.

[5] = molecular target: FcγR1 (CD64), BLI reagent (UniProt P12314 16-288, limits assumed); test: BLI; antibody as analyte at 300 nM on FcγR1
[6] = molecular target: T2, biotinylated recombinant human …; test: BLI/Octet; biotinylated TNFRSF25 on streptavidin sensor, mAb in solution; 1:1 Langmuir model
Text: Provided herein are monoclonal and biparatopic antibodies that specifically target human TNFRSF25. The monoclonal antibodies were produced in an engineered CHOK1 cell-line by transfecting the cells with vectors genetically encoding the Heavy and Light chain antibody sequences followed by a single-step affinity-capture chromatography using FcXL resins. The final monoclonal antibody preparation was buffer exchanged into PBS, pH 7.4. Production of biparatopic antibodies followed a two-step process. In the first step of the process, the so called Knob-half (or Hole-half) antibody was produced by transfecting an engineered CHOK1 cell-line with vectors genetically encoding the Knob (or the Hole) Heavy chain and the corresponding Light chain sequences. The CHOK1-cell-harvest from the Knob-half antibody and Hole half-antibody was then purified by Protein A column-based chromatography. In the second step of the process, the two half-antibodies were reassembled into the desired biparatopic format by the use of a mild reduction step followed by quenching the reaction with buffer exchange into PBS, pH 7.4. To detect binding of the antibodies to human TNFRSF25, recombinant biotin-conjugated human TNFRSF25 protein was immobilized onto a streptavidin-coated MSD (Meso Scale Discovery) plate and allowed to bind the anti-TNFRSF25 mAbs in solution. Following a washing step, the bound antibodies were detected using a sulfo-tagged anti-human Fc antibody. The results of these MSD assays are shown in arbitrary units (au) on the y-axis of FIG. 1. To determine the binding affinity of the antibodies to recombinant human TNFRSF25 protein, recombinant biotin-conjugated human TNFRSF25 protein was immobilized onto a streptavidin-coated BLI sensor and allowed to bind the anti-TNFRSF25 mAbs in solution phase. The binding affinity (K_D) was calculated using the on-rates (Ka) and off-rates (Kd) of mAb binding to the target using a 1:1 Langmuir binding model in the ForteBio data analysis software.

[7] = molecular target: T3, DcR3 (decoy receptor, recombinant) (UniProt O95407 30-300); test: MSD plate binding; human DcR3 protein immobilized on the plate, sulfo-tag anti-human Fc
T3 construct: also called decoy Receptor, DcR3
T3 sequence (looked up): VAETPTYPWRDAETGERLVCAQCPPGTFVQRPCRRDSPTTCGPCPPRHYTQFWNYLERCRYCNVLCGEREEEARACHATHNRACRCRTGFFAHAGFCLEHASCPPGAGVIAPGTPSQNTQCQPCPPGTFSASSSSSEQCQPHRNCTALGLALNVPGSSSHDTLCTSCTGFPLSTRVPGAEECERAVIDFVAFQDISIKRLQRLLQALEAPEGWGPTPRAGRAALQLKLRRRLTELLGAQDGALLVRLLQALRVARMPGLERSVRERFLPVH

TNFR1 (recombinant) = molecular target: T4, TNFR1 (recombinant) (UniProt P19438 30-211, limits assumed); test: MSD plate binding; human TNFR1 protein immobilized on the plate, sulfo-tag anti-human Fc
T4 sequence (looked up): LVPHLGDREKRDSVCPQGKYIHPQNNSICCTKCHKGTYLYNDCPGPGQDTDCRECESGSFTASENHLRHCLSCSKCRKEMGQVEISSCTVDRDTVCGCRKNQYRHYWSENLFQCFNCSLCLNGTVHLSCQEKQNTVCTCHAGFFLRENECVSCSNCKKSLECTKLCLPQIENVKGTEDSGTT

TNFR2 (recombinant) = molecular target: T5, TNFR2 (recombinant) (UniProt P20333 23-257, limits assumed); test: MSD plate binding; human TNFR2 protein immobilized on the plate, sulfo-tag anti-human Fc
T5 sequence (looked up): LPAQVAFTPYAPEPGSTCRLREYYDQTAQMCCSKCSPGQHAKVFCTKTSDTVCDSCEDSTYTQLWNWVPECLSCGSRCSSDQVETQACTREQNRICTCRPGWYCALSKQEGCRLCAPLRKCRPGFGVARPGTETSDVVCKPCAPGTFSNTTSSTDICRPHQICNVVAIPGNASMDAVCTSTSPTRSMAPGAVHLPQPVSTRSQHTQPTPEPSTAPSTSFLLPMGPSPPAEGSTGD

[8] = molecular target: T2, biotinylated recombinant human …; test: MSD competition; TNFRSF25 on plate, antibody titrated, then TL1A-rabbit Fc 0.4 µg/ml as competitor
Description: as §3

[9] = molecular target: T2, biotinylated recombinant human …; test: BLI/Octet Red 96e; biotinylated TNFRSF25-His on streptavidin biosensor; 600 s association, 600 s dissociation
Description: Figure 4: FIG. 4. TNFRSF25 binding affinity of anti-TNFRSF25 antibodies. BLI assay was performed using the Octet Red 96e instrument. Streptavidin biosensors were loaded with biotinylated recombinant human TNFRSF25-His tagged (Acro #TN5-H52H3) as the ligand. During the association phase, biosensors were incubated with anti-TNFRSF25 antibodies at various concentrations for 600 seconds, followed by a 600-second dissociation phase.
as §2, with “human TNFRSF25,” for “the neonatal Fc receptor (FcRn) at neutral and acidic pH conditions,”, “TNFRSF25-His” for “FcRn-His”, “tagged” for “tagged protein”, “#TN5-H52H3)” for “#FCM-H82W7)”

[10] = molecular target: T1, biotinylated recombinant human FcRn-His …; test: BLI/Octet; biotinylated human FcRn-His on streptavidin biosensor; pH 7.4; pH 7.4
Description: as §1, §2

[11] = molecular target: T2, biotinylated recombinant human …; test: MSD plate binding; TNFRSF25 precoated, unpurified scFv supernatant in 2-fold serial dilutions, detection of the C-terminal myc tag
Text: (FIG. 2A) TNFRSF25 was precoated on MSD assay plates followed by adding scFv supernatant at 2-fold serial-dilutions followed by detection of the myc tag present on the C-terminus of the scFv's. (FIG. 2B) scFv supernatant were serially diluted and added to an MSD-plate pre-coated with TNFRSF25.

Chain of FcγR1 (CD64), BLI reagent (P12314 16-288 limits assumed): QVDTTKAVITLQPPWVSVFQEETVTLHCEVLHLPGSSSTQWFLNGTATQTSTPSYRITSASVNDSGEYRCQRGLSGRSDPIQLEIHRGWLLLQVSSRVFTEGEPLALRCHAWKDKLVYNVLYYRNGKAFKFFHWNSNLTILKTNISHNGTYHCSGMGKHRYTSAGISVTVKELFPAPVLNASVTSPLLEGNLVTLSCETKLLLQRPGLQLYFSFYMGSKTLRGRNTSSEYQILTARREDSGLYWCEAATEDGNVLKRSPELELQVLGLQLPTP

- fold improvement in binding affinity at pH 6.0 compared to pH 7.4 [1]: ~10 fold
- Kd [2]: 0.966 nM
- koff [2]: 0.000193 s⁻¹
- kon [2]: 200000 M⁻¹ s⁻¹
- Kd [3]: 8.08 nM
- koff [3]: 0.00179 s⁻¹
- kon [3]: 222000 M⁻¹ s⁻¹
- IC50 (read off the curve) [4]: ~0.07 nM
B1: SL-061_YTE (antibody, human IgG1, kappa)
heavy: QVQLQQSGPGLVKPSQTLSLTCAISGDSVSGYSAAWNWIRQSPSRGLEWLGRTYYRSKWYNDYAVSVKSRITINPDTSKNQFSLQLNSVTPEDTAVYYCARDYYGSESYYNRGYYYYGMDVWGQGTTVTVSSASTKGPSVFPLAPSSKSTSGGTAALGCLVKDYFPEPVTVSWNSGALTSGVHTFPAVLQSSGLYSLSSVVTVPSSSLGTQTYICNVNHKPSNTKVDKKVEPKSCDKTHTCPPCPAPEAAGAPSVFLFPPKPKDTLYITREPEVTCVVVDVSHEDPEVKFNWYVDGVEVHNAKTKPREEQYNSTYRVVSVLTVLHQDWLNGKEYKCKVSNKALPAPIEKTISKAKGQPREPQVYTLPPSREEMTKNQVSLTCLVKGFYPSDIAVEWESNGQPENNYKTTPPVLDSDGSFFLYSKLTVDKSRWQQGNVFSCSVMHEALHNHYTQKSLSLSPGK
light: AIQLTQSPSSLSASVGDRVTITCRASPGISSALAWYQQKPGKAPKLLMYDESSQESGVPSRFSGSGSGTDFTLTISSLQPEDFATYYCQQFNDYPLTFGGGTKVEIKRTVAAPSVFIFPPSDEQLKSGTASVVCLLNNFYPREAKVQWKVDNALQSGNSQESVTEQDSKDSTYSLSSTLTLSKADYEKHKVYACEVTHQGLSSPVTKSFNRGEC
notes: SL-061 with YTE half-life extension changes in the Fc

- binding result [5]: binds
- Kd [6]: < 1 nM
- IC50 [8]: 0.07 nM
- Response (RU) [9]: 2.19 RU
- koff [9]: < 1e-07 s⁻¹
- kon [9]: 243000 M⁻¹ s⁻¹
B2: SL-033 (antibody, human IgG1, kappa, L234A L235A)
heavy: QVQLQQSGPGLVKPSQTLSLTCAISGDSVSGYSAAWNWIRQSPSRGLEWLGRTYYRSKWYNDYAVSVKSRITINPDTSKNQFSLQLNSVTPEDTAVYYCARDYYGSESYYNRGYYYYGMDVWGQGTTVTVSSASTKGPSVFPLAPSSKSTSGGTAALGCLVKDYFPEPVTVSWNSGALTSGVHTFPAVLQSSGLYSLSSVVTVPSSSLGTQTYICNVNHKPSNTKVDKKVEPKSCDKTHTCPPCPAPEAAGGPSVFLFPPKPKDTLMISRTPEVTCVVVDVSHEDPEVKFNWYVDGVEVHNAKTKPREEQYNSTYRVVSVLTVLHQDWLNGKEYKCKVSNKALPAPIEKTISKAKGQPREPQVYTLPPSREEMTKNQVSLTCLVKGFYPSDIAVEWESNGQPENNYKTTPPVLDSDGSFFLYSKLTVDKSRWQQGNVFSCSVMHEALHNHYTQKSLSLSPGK
light: AIQLTQSPSSLSASVGDRVTITCRASPGISSALAWYQQKPGKAPKLLMYDESSQESGVPSRFSGSGSGTDFTLTISSLQPEDFATYYCQQFNDYPLTFGGGTKVEIKRTVAAPSVFIFPPSDEQLKSGTASVVCLLNNFYPREAKVQWKVDNALQSGNSQESVTEQDSKDSTYSLSSTLTLSKADYEKHKVYACEVTHQGLSSPVTKSFNRGEC
notes: Anti-TNFRSF25 IgG1 with Fc-silencing L234A/L235A; also called clone 033; SL-033 (L234A/L235A)
- binding result [7]: no binding (tested: about 200 nM (log nM about 2.3))
- binding result (TNFR1 (recombinant)): no binding (tested: about 200 nM (log nM about 2.3))
- binding result (TNFR2 (recombinant)): no binding (tested: about 200 nM (log nM about 2.3))

- binding result [5]: binds
- Kd [2]: 3.93 nM
- koff [2]: 0.000715 s⁻¹
- kon [2]: 182000 M⁻¹ s⁻¹
- Kd [3]: 6.54 nM
- kon [3]: 190000 M⁻¹ s⁻¹
- koff [10]: 0.00124 s⁻¹
B3: SL-062 (antibody, human IgG1, kappa)
heavy: not shown
light: AIQLTQSPSSLSASVGDRVTITCRASPGISSALAWYQQKPGKAPKLLMYDESSQESGVPSRFSGSGSGTDFTLTISSLQPEDFATYYCQQFNDYPLTFGGGTKVEIKRTVAAPSVFIFPPSDEQLKSGTASVVCLLNNFYPREAKVQWKVDNALQSGNSQESVTEQDSKDSTYSLSSTLTLSKADYEKHKVYACEVTHQGLSSPVTKSFNRGEC
notes: Same variable regions as SL-033 with wild-type IgG1 Fc; also called clone 062

- binding result [11]: binds
B4: NH24-162 (scFv, not shown: small tags and cut ends)
scFv: EVQLVESGGGSVQPGGSLRLSCAASGFTFSSYGMSWVRQAPGKGLEWISYISSSGGHTYYADSVKGQFTISRDNAKNSLYLQMNSLRAEDTAVYYCARGSGSFDYWGQGTLVTVSSGGRGSGGGGSGSGGSDIVMTQSPSSLSASVGDRVTITCQASQDISNYLSWYQQKPGKAPKLLISDASNLETGVPSRFSGSGSGTDFTFTISSLQPEDIATYYCQQYDNLPITFGQGTRLEIKR
notes: one of the four variants of group m25; used as unpurified E. coli supernatant; the sheet prints NH24-162; also called NH24-162 scFv
